Data published in patent publication US20210079037A1 (TECHNISCHE UNIVERSIT T M NCHEN, published 2021).

Tests used:
[1] = target: T1, mouse anti-6×His antibody alkaline phosphatase (AP) conjugate (Arigo Biolaboratories); assay: ELISA: ProtL-ABD in a dilution series captured on coated HSA, mouse anti-6xHis Ig-AP conjugate (1:1000) applied, kept in daylight, AP activity as dA/dt [left graph]
T1 construct: also called mouse anti-6×His Ig-AP conjugate; Ig-AP conjugate
Description: (§1) ELISA was performed at ambient temperature in a 96-well Maxisorb microtiter plate (Nunc, Langenselbold, Germany).
(§2) Then, the wells were blocked with […] Roti-Block (Carl Roth, Karlsruhe, Germany) diluted 1:10 in ddH₂O for 1 h and washed three times with PBS containing 0.1% v/v Tween 20 (PBS/T). After that, the purified ProtL^Caf-ABD fusion protein from Example 11 was applied in a dilution series in PBS/T and incubated for 1 h to effect complex formation between the ABD moiety and the pre-adsorbed HSA. The wells were then washed three times with PBS/T and incubated with 50 μl of a 1:1000 dilution in PBS/T of the aforementioned mouse anti-6×His Ig-AP conjugate.

[2] = target: T2, recombinant human serum albumin (HSA) produced in rice (Sigma-Aldrich) (human, UniProt P02768 25-609); assay: ELISA, capture of the ABD fusion on HSA-coated plate
T2 construct: also called recombinant HSA
T2 sequence (P02768 25-609 limits assumed): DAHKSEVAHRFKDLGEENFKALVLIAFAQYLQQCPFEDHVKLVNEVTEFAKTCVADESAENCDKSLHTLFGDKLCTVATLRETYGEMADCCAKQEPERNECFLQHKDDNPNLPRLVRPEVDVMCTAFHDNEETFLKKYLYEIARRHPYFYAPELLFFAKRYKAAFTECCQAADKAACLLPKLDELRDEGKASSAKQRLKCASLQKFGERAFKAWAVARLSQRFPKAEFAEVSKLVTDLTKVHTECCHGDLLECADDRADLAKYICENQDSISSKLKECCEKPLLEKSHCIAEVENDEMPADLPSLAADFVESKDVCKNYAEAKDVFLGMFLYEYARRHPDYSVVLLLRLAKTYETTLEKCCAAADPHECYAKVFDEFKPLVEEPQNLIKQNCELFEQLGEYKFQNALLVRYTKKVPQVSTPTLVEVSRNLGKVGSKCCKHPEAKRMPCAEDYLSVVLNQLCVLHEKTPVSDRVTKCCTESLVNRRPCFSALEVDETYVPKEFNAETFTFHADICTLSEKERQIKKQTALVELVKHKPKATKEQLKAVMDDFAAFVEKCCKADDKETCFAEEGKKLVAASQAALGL
Description: as §1, §2

[3] = target: T1, mouse anti-6×His antibody alkaline …; assay: ELISA: ProtL-ABD in a dilution series captured on coated HSA, mouse anti-6xHis Ig-AP conjugate (1:1000) applied, UV light of 365 nm for 5 min before the washes, AP activity as dA/dt [left graph]
Description: as §1, §2

B1: ProtL-ABD fusion protein (other)
chain: MKEEVTIKVNLIFADGKTQTAEFKGTFEEATAKAYAYADLLAKENGEYTADLEDGGNTINIKFAGGAVDANSLAEAKVLANRELDKYGVSDYYKNLINNAKTVEGVKALIDEILAALP
notes: also called protein L-ABD fusion protein; unmodified ProtL-ABD
- EC50 (read off the curve) [1]: ~40 nM
- binding result [2]: binds
- EC50 (read off the curve) [3]: ~40 nM
